Data on three molecules can be found in publication PMC9242648.

First the molecules themselves.
B1: human β-cardiac myosin 2-hep heavy chain, wild type A797T (protein)
chain: MGDSEMAVFGAAAPYLRKSEKERLEAQTRPFDLKKDVFVPDDKQEFVKAKIVSREGGKVTAETEYGKTVTVKEDQVMQQNPPKFDKIEDMAMLTFLHEPAVLYNLKDRYGSWMIYTYSGLFCVTVNPYKWLPVYTPEVVAAYRGKKRSEAPPHIFSISDNAYQYMLTDRENQSILITGESGAGKTVNTKRVIQYFAVIAAIGDRSKKDQSPGKGTLEDQIIQANPALEAFGNAKTVRNDNSSRFGKFIRIHFGATGKLASADIETYLLEKSRVIFQLKAERDYHIFYQILSNKKPELLDMLLITNNPYDYAFISQGETTVASIDDAEELMATDNAFDVLGFTSEEKNSMYKLTGAIMHFGNMKFKLKQREEQAEPDGTEEADKSAYLMGLNSADLLKGLCHPRVKVGNEYVTKGQNVQQVIYATGALAKAVYERMFNWMVTRINATLETKQPRQYFIGVLDIAGFEIFDFNSFEQLCINFTNEKLQQFFNHHMFVLEQEEYKKEGIEWTFIDFGMDLQACIDLIEKPMGIMSILEEECMFPKATDMTFKAKLFDNHLGKSANFQKPRNIKGKPEAHFSLIHYAGIVDYNIIGWLQKNKDPLNETVVGLYQKSSLKLLSTLFANYAGADAPIEKGKGKAKKGSSFQTVSALHRENLNKLMTNLRSTHPHFVRCIIPNETKSPGVMDNPLVMHQLRCNGVLEGIRICRKGFPNRILYGDFRQRYRILNPAAIPEGQFIDSRKGAEKLLSSLDIDHNQYKFGHTKVFFKAGLLGLLEEMRDERLSRIITRIQAQSRGVLTRMEYKKLLERRDSLLVIQWNIRAFMGVKNWPWMKLYFKIKPLLKSAEREKEMASMKEELEDKVEELLSKNYHLENEVARL
B2: human β-cardiac myosin 2-hep heavy chain, wild type S782N (protein)
chain: B1 chain with S782N, T797A
B3: human β-cardiac myosin 2-hep heavy chain, wild type F834L (protein)
chain: B1 chain with T797A, F834L

Substitutions are numbered along the chain they refer to. Numbers in names are those of the source.

In one assay the target is human essential light chain (MYL3), P08590. As to the kind of experiment: Coomassie SDS-PAGE gel-based light chain loading assay. The settings on record: chain shown with the change;; read off a plot.
Chain of human essential light chain (MYL3), P08590 (P08590 whole entry): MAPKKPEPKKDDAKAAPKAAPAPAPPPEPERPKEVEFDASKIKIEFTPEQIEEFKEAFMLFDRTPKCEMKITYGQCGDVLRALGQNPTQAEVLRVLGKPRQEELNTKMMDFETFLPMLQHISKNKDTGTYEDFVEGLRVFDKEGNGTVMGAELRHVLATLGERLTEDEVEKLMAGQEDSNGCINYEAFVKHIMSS
Consider B1, for which the ratio to parent came to 0.96.
Same read-out and setting: the figure for B2 is 1.1; for B3 it is 1.

The target of another assay is T1, human regulatory light chain (MYL2), P10916.
T1 chain: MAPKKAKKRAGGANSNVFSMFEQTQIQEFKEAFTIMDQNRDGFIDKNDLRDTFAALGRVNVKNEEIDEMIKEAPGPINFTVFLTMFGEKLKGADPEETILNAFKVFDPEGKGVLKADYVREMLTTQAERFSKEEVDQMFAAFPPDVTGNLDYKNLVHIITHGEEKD
The assay is described as above. The settings on record: chain shown with the change;; read off a plot.
Consider B1, for which the ratio to parent is 0.97.
Same read-out and setting: the figure for B2 is 1.2.
Still for that read-out and setting: the figure for B3 is 1.1.
